# Positions of bridges follow the written chain, without caps; N, C: chain ends. No end group written: not given here.
# How the values were obtained:
# [1] = target: endothelial cell receptor for TKPPR on human aortic endothelial cells (HAEC); test: competition on HAEC: BRU-306 50 µM against 2% BRU-114 bubbles
# [2] = target: endothelial cell receptor for TKPPR on human aortic endothelial cells (HAEC); test: competition on HAEC: BRU-306 100 µM against 2% BRU-114 bubbles
# [3] = target: endothelial cell receptor for TKPPR on human aortic endothelial cells (HAEC); test: competition on HAEC: BRU-306 200 µM against 2% BRU-114 bubbles
# [4] = target: endothelial cell receptor for TKPPR on human aortic endothelial cells (HAEC); test: competition on HAEC: BRU-305 50 µM against 2% BRU-114 bubbles
# [5] = target: endothelial cell receptor for TKPPR on human aortic endothelial cells (HAEC); test: competition on HAEC: BRU-305 100 µM against 2% BRU-114 bubbles
# [6] = target: endothelial cell receptor for TKPPR on human aortic endothelial cells (HAEC); test: competition on HAEC: BRU-305 200 µM against 2% BRU-114 bubbles
# [7] = target: VEGF receptors on HUVECs; test: competition of 125I-VEGF binding to HUVECs
# [8] = target: endothelial cell receptor for TKPPR on human aortic endothelial cells (HAEC); test: competition on HAEC: free TKPPR 5 µM against 1% BRU-114 bubbles
# [9] = target: endothelial cell receptor for TKPPR on human aortic endothelial cells (HAEC); test: competition on HAEC: free TKPPR 50 µM against 5% BRU-114 bubbles
# [10] = target: endothelial cell receptor for TKPPR on human aortic endothelial cells (HAEC); test: competition on HAEC: free TKPPR 25 µM against 2% BRU-114 bubbles
# [11] = target: endothelial cell receptor for TKPPR on human aortic endothelial cells (HAEC); test: competition on HAEC: free TKPPR 10 µM against 1% BRU-114 bubbles
# [12] = target: endothelial cell receptor for TKPPR on human aortic endothelial cells (HAEC); test: competition on HAEC: free TKPPR 25 µM against 1% BRU-114 bubbles
# [13] = target: endothelial cell receptor for TKPPR on human aortic endothelial cells (HAEC); test: competition on HAEC: free TKPPR 50 µM against 1% BRU-114 bubbles
# [14] = target: endothelial cell receptor for TKPPR on human aortic endothelial cells (HAEC); test: competition on HAEC: free TKPPR 100 µM against 5% BRU-114 bubbles
# [15] = target: receptor for TKPPR on rabbit aortic endothelial cells (RAEC); test: competition on RAEC: free TKPPR 100 µM against 5% BRU-114 bubbles
# [16] = target: endothelial cell receptor for TKPPR on human aortic endothelial cells (HAEC); test: competition on HAEC: free TKPPR 10 µM against 10% BRU-114 bubbles
# [17] = target: endothelial cell receptor for TKPPR on human aortic endothelial cells (HAEC); test: competition on HAEC: free TKPPR 200 µM against 1% BRU-114 bubbles
# [18] = target: endothelial cell receptor for TKPPR on human aortic endothelial cells (HAEC); test: competition on HAEC: free TKPPR 200 µM against 5% BRU-114 bubbles
# [19] = target: endothelial cell receptor for TKPPR on human aortic endothelial cells (HAEC); test: competition on HAEC: free TKPPR 50 µM against 10% BRU-114 bubbles
# [20] = target: endothelial cell receptor for TKPPR on human aortic endothelial cells (HAEC); test: competition on HAEC: free TKPPR 100 µM against 1% BRU-114 bubbles
# [21] = target: endothelial cell receptor for TKPPR on human aortic endothelial cells (HAEC); test: competition on HAEC: free TKPPR 10 µM against 5% BRU-114 bubbles
# [22] = target: endothelial cell receptor for TKPPR on human aortic endothelial cells (HAEC); test: competition on HAEC: free TKPPR 100 µM against 10% BRU-114 bubbles
# [23] = target: endothelial cell receptor for TKPPR on human aortic endothelial cells (HAEC); test: competition on HAEC: free TKPPR 200 µM against 10% BRU-114 bubbles
# [24] = target: endothelial cell receptor for TKPPR on human aortic endothelial cells (HAEC); test: competition on HAEC: free TKPPR 10 µM against TKPPR-beads, average n = 11
# [25] = target: endothelial cell receptor for TKPPR on human aortic endothelial cells (HAEC); test: competition on HAEC: free TKPPR 25 µM against TKPPR-beads, average n = 11
# [26] = target: endothelial cell receptor for TKPPR on human aortic endothelial cells (HAEC); test: competition on HAEC: free TKPPR 50 µM against TKPPR-beads, average n = 11
# [27] = target: endothelial cell receptor for TKPPR on human aortic endothelial cells (HAEC); test: competition on HAEC: free TKPPR 100 µM against TKPPR-beads, average n = 11
# [28] = target: endothelial cell receptor for TKPPR on human aortic endothelial cells (HAEC); test: competition on HAEC: free TKPPR 200 µM against TKPPR-beads, average n = 11
# [29] = target: endothelial cell receptor for TKPPR on human aortic endothelial cells (HAEC); test: competition on HAEC: free TKPPR 500 µM against TKPPR-beads, average n = 11
# [30] = target: endothelial cell receptor for TKPPR on human aortic endothelial cells (HAEC); test: competition on HAEC: free TKPPR 10 µM against 1% BRU-114 bubbles, average of two
# [31] = target: endothelial cell receptor for TKPPR on human aortic endothelial cells (HAEC); test: competition on HAEC: free TKPPR 10 µM against 1% BRU-292 bubbles, average of two
# [32] = target: endothelial cell receptor for TKPPR on human aortic endothelial cells (HAEC); test: competition on HAEC: free TKPPR 25 µM against 1% BRU-114 bubbles, average of two
# [33] = target: endothelial cell receptor for TKPPR on human aortic endothelial cells (HAEC); test: competition on HAEC: free TKPPR 25 µM against 1% BRU-292 bubbles, average of two
# [34] = target: endothelial cell receptor for TKPPR on human aortic endothelial cells (HAEC); test: competition on HAEC: free TKPPR 50 µM against 1% BRU-114 bubbles, average of two
# [35] = target: endothelial cell receptor for TKPPR on human aortic endothelial cells (HAEC); test: competition on HAEC: free TKPPR 50 µM against 1% BRU-292 bubbles, average of two
# [36] = target: endothelial cell receptor for TKPPR on human aortic endothelial cells (HAEC); test: competition on HAEC: free TKPPR 2.5 µM against 1% BRU-114 bubbles, average of two
# [37] = target: endothelial cell receptor for TKPPR on human aortic endothelial cells (HAEC); test: competition on HAEC: free TKPPR 2.5 µM against 1% BRU-292 bubbles, average of two
# [38] = target: endothelial cell receptor for TKPPR on human aortic endothelial cells (HAEC); test: competition on HAEC: free TKPPR (head: 10 µmol; text: 10 µM) against 1% BRU-114 bubbles
# [39] = target: endothelial cell receptor for TKPPR on human aortic endothelial cells (HAEC); test: competition on HAEC: free TKPPR (head: 10 µmol; text: 10 µM) against 5% BRU-114 bubbles
# [40] = target: endothelial cell receptor for TKPPR on human aortic endothelial cells (HAEC); test: competition on HAEC: free TKPPR (head: 100 µmol; text: 100 µM) against 1% BRU-114 bubbles
# [41] = target: endothelial cell receptor for TKPPR on human aortic endothelial cells (HAEC); test: competition on HAEC: free TKPPR (head: 100 µmol; text: 100 µM) against 5% BRU-114 bubbles
# [42] = target: endothelial cell receptor for TKPPR on human aortic endothelial cells (HAEC); test: 5% BRU-114 bubbles on HAEC, static
# [43] = target: KB cells (human epidermoid carcinoma cell line), cell surface; test: 5% BRU-114 bubbles on KB cells, static
# [44] = target: endothelial cell receptor for TKPPR on human aortic endothelial cells (HAEC); test: 5% BRU-114 bubbles on HAEC, static, no competitor
# [45] = target: receptor for TKPPR on rabbit aortic endothelial cells (RAEC); test: 5% BRU-114 bubbles on RAEC, static, no competitor
# [46] = target: endothelial cell receptor for TKPPR on human aortic endothelial cells (HAEC); test: 1% BRU-114 bubbles on HAEC, static, no competitor
# [47] = target: endothelial cell receptor for TKPPR on human aortic endothelial cells (HAEC); test: 2% BRU-114 bubbles on HAEC, static, no competitor
# [48] = target: endothelial cell receptor for TKPPR on human aortic endothelial cells (HAEC); test: 10% BRU-114 bubbles on HAEC, static, no competitor
# [49] = target: endothelial cell receptor for TKPPR on human aortic endothelial cells (HAEC); test: microbubbles with 1% BRU-114 on HAEC, static, no competitor
# [50] = target: endothelial cell receptor for TKPPR on human aortic endothelial cells (HAEC); test: microbubbles with 5% BRU-114 on HAEC, static, no competitor
# [51] = target: endothelial cell receptor for TKPPR on human aortic endothelial cells (HAEC); test: 5% BRU-114 bubbles on HAEC, static, no competitor (control)
# [52] = target: endothelial cell receptor for TKPPR on human aortic endothelial cells (HAEC); test: microbubbles with 5% BRU-114 on HAEC, static inverted culture
# [53] = target: endothelial cell receptor for TKPPR on human aortic endothelial cells (HAEC); test: microbubbles on HAEC, static, manual count, 5% against 1% BRU-114
# [54] = target: endothelial cell receptor for TKPPR on human aortic endothelial cells (HAEC); test: 1% BRU-114 bubbles on HAEC, static, no competitor, average of duplicates
# [55] = target: endothelial cell receptor for TKPPR on human aortic endothelial cells (HAEC); test: 2% BRU-114 bubbles on HAEC, static, no competitor, average of duplicates
# [56] = target: endothelial cell receptor for TKPPR on human aortic endothelial cells (HAEC); test: 5% BRU-114 bubbles on HAEC, static, no competitor (same control as the 20th table)
# [57] = target: endothelial cell receptor for TKPPR on human aortic endothelial cells (HAEC); test: 5% BRU-114 bubbles on HAEC, static, cells pretreated 4 h with 0 ng/mL TNFα
# [58] = target: endothelial cell receptor for TKPPR on human aortic endothelial cells (HAEC); test: 5% BRU-114 bubbles on HAEC, static, cells pretreated 4 h with 1 ng/mL TNFα
# [59] = target: endothelial cell receptor for TKPPR on human aortic endothelial cells (HAEC); test: 5% BRU-114 bubbles on HAEC, static, cells pretreated 4 h with 5 ng/mL TNFα
# [60] = target: endothelial cell receptor for TKPPR on human aortic endothelial cells (HAEC); test: 5% BRU-114 bubbles on HAEC, static, cells pretreated 4 h with 10 ng/mL TNFα
binder,measurement,setting,value
CTKPPRC-OH (disulfide 1-7 (inferred)) [Cyclic disulfide CTKPPRC (BRU-306)],Bubbles Bound %,[1],97 % of control
same,Bubbles Bound %,[2],71 % of control
same,Bubbles Bound %,[3],99 % of control
CTKPPRC [Linear CTKPPRC (BRU-305)],Bubbles Bound %,[4],97 % of control
same,Bubbles Bound %,[5],78 % of control
same,Bubbles Bound %,[6],88 % of control
"TKPPR-OH [TKPPR (L-threonyl-L-lysyl-L-prolyl-L-prolyl-L-arginine), free monomeric peptide]",IC50,[7],250 µM
same,Average % Inhibition,[8],45.7%
same,Bubbles Bound,[8],790 bubbles
same,Bubbles Bound-5%,[9],440 bubbles
same,Bubbles Bound %,[10],16 % of control
same,% inhibition of bubble binding,[11],82.7%
same,Average % Inhibition,[11],79.6%
same,Bubbles Bound,[11],528 bubbles
same,Bubbles Bound-1%,[11],10 bubbles
same,Average % Inhibition,[12],82%
same,Bubbles Bound,[12],106 bubbles
same,Average % Inhibition,[13],92.7%
same,Bubbles Bound,[13],56 bubbles
same,Bubbles Bound-1%,[13],5 bubbles
same,Bubbles Bound-5%,[14],12 bubbles
same,HAEC bubbles bound,[14],58 bubbles
same,RAEC bubbles bound,[15],21 bubbles
same,Bubbles Bound-10%,[16],1090 bubbles
same,Bubbles Bound-1%,[17],4 bubbles
same,Bubbles Bound-5%,[18],13 bubbles
same,Bubbles Bound-10%,[19],857 bubbles
same,Average % Inhibition,[20],93.7%
same,Bubbles Bound,[20],17 bubbles
same,Bubbles Bound-1%,[20],4 bubbles
same,% more bubbles bound than without competitor,[21],19%
same,Bubbles Bound-5%,[21],1340 bubbles
same,Bubbles Bound-10%,[22],399 bubbles
same,Bubbles Bound-10%,[23],66 bubbles
same,% Inhibition,[24],30.8%
same,% Inhibition,[25],50.7%
same,% Inhibition,[26],50.5%
same,% Inhibition,[27],62%
same,% Inhibition,[28],72.2%
same,% Inhibition,[29],70.6%
same,Bubbles Bound-BRU-114 Formulation,[30],535 bubbles
same,Bubbles Bound-BRU-292 Formulation,[31],833 bubbles
same,Bubbles Bound-BRU-114 Formulation,[32],75 bubbles
same,Bubbles Bound-BRU-292 Formulation,[33],718 bubbles
same,Bubbles Bound-BRU-114 Formulation,[34],9 bubbles
same,Bubbles Bound-BRU-292 Formulation,[35],462 bubbles
same,Bubbles Bound-BRU-114 Formulation,[36],1240 bubbles
same,Bubbles Bound-BRU-292 Formulation,[37],888 bubbles
same,Bubbles Bound,[38],96 bubbles
same,Bubbles Bound,[39],865 bubbles
same,Bubbles Bound,[40],5 bubbles
same,Bubbles Bound,[41],62 bubbles
GTKPPR-OH (not fully specified (N-terminus); also: built into phospholipid gas-filled microbubbles) [DPPE-Glu-GTKPPR (BRU-114) in gas-filled microbubbles],HAEC bubble binding,[42],1120 bubbles
same,KB cell bubble binding,[43],56 bubbles
same,Bubbles Bound-5%,[44],2780 bubbles
same,HAEC bubbles bound,[44],1420 bubbles
same,RAEC bubbles bound,[45],751 bubbles
same,Bubbles Bound-1%,[46],1640 bubbles
same,Bubbles Bound %,[47],100 % of control
same,Bubbles Bound-10%,[48],1860 bubbles
same,"bubbles bound, no competition",[49],555 bubbles
same,"bubbles bound, no competition",[50],726 bubbles
same,Bubbles Bound,[51],1250 bubbles
same,Bubbles Bound,[52],7050 bubbles
same,% more bubbles bound than with the 1% composition,[53],31%
same,Bubbles Bound,[54],737 bubbles
same,Bubbles Bound,[55],953 bubbles
same,Bubbles Bound,[56],1250 bubbles
same,TKPPR-Bubbles bound,[57],950 bubbles
same,TKPPR-Bubbles bound,[58],1520 bubbles
same,TKPPR-Bubbles bound,[59],1360 bubbles
same,TKPPR-Bubbles bound,[60],1020 bubbles
